Experimental data from patent US20210147541A1 (Kyowa Kirin, published 2021).
Read-outs that look alike come from different tables or passages of the source.

T1: mouse CADM3 (mouse, UniProt Q99N28 23-396)
T1 construct: Full-length gene expressed transiently on Expi293F cells; also called mouse CADM3/Expi293F cells; Mouse CADM3-expressing cells
T1 sequence: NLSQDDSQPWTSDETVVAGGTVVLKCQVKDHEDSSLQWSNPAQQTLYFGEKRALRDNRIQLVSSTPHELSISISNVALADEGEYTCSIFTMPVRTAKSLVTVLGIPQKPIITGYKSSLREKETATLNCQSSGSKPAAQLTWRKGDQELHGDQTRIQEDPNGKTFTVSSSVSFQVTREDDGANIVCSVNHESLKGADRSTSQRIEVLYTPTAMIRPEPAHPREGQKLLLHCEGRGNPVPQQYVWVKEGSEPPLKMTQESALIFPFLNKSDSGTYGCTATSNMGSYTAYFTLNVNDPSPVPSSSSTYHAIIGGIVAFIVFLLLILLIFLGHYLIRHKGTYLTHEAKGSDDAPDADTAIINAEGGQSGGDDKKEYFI


Tests used:
[1] = molecular target: T2, hCADM3-GST (human); assay: phage ELISA, hCADM3-GST immobilized
T2 construct: also called extracellular domain of human CADM3 to which GST was added at the C-terminal side; human CADM3-GST
Description: (§1) In the ELISA, hCADM3-GST and mCADM3-GST were immobilized (50 ng/50 μL) on MAXISORP (manufactured by NUNC, Inc.), followed by blocking using 0.5% BSA. To each well, each phage clone was added and allowed to react at room temperature for 1 hour, and thereafter, each well was washed 5 times with PBS-T. Subsequently, a biotinylated anti-M13 phage antibody (manufactured by Abcam plc) and horseradish peroxidase-labeled streptavidin (manufactured by Vector Co., Ltd.) were added to each well in an amount of 50 μL, followed by incubation at room temperature for 1 hour.
(§2) After the microplate was washed with PBS-T, a 3,3′,5,5′-tetramethylbenzidine (TMB) chromogenic substrate solution (manufactured by Calbiochem, Inc.) was added to each well, followed by incubation at room temperature. The coloring reaction was stopped by adding a 1 mol/L hydrochloric acid to each well, and an absorbance at a wavelength of 450 nm (reference wavelength: 570 nm) was measured using a microplate reader.

[2] = molecular target: T3, mCADM3-GST (mouse); assay: phage ELISA, mCADM3-GST immobilized
T3 construct: also called extracellular domain of mouse CADM3 to which GST was added at the C-terminal side; mouse CADM3-GST
Description: as §1, §2

[3] = molecular target: T1, mouse CADM3; assay: flow cytometry, mouse CADM3/Expi293F vs parent Expi293F cells
[4] = molecular target: T1, mouse CADM3; assay: flow cytometry, 10 ug/mL, mouse CADM3/Expi293F vs parent Expi293F cells
[5] = molecular target: T1, mouse CADM3; assay: as above; remark: listed apart in the source
Description: (§3) After washing with SB, the cells were suspended in SB, and the fluorescence intensity of each cell was measured using a flow cytometer FACS CANTO II (manufactured by Becton, Dickinson and Company). Note that as a negative control, 10 μg/mL of the anti-AVM antibody was used.
(§4) The detection results were analyzed, and a mean fluorescence intensity (MFI) was calculated using a geometric mean. Further, with respect to the MFI when the concentration of each antibody was 10 μg/mL, the ratio of the MFI (mean fluorescence intensity ratio) between the human CADM3/Expi293F cells and the Expi293F cells (parent cell line) was calculated.
Further, also with respect to AVM IgG4PE(R409K)_iCADM3_3R1-L5 dVHH, AVM IgG4PE(R409K)_iCADM3_3R1-L8 dVHH, AVM IgG4PE(R409K)_iCADM3_3R1-L10 dVHH, and AVM IgG4PE(R409K)_iCADM3_3R1-L11 dVHH, reactivity with the Expi293F cells, the human CADM3/Expi293F cells, and the mouse CADM3/Expi293F cells was analyzed by the same procedure, and the results are shown in Table 5.

[6] = molecular target: T1, mouse CADM3; assay: as above; remark: listed apart in the source
Description: as §3, §4
(§5) With respect to the produced humanized anti-CADM3 VHH-Fc antibodies, reactivity with Expi293F cells, human CADM3/Expi293F cells, and mouse CADM3/Expi293F cells was analyzed by the same procedure as in Example 3.

[7] = molecular target: T1, mouse CADM3; assay: as above; remark: listed apart in the source
Description: as §3, §4, §5

Binder | binding result [1] | binding result [2] | binding result [3] | Mean fluorescence intensity ratio [4] | Mean fluorescence intensity ratio [5] | Mean fluorescence intensity ratio [6] | Mean fluorescence intensity ratio [7]
iCADM3_3R1-L10 (VHH, also called iCADM3-3R1-L10 antibody; anti-CADM3 VHH antibody (phage clone)) VHH: QVQLVESGGGLVQAGGSLRLSCAASGSIFSIHAMGWYRQAPGKQRELVATVTSGGSTNYADSVKGRFTISRDNAKNTVYLQMNSLKPEDTAVYYCNAETPYYSSTYYTNYWGQGTQVTVSS | binds | binds | – | – | – | – | –
iCADM3_3R1-L11 (VHH, also called iCADM3-3R1-L11 antibody; anti-CADM3 VHH antibody (phage clone)) VHH: QVQLVESGGGLVQAGGSLRLSCAASGSIFSFNAMGWYRQAPGKQRGLVAVITSGGYTNYADSVKGRFTITRDNAKNTVYLQMNSLKPEDTAVYYCNAEGVYSDYVIMNYWGQGTQVTVSS | binds | binds | – | – | – | – | –
anti-AVM antibody (antibody, V domains shown, Negative control; also called chimeric anti-Avermectin (AVM) antibody; anti-AVM-IgG4 antibody) VH: EVQLVESGGGLVQPGRSLKLSCAASGFTFSNYAMAWVRRAPTKGLEWVASISNGGGNTYYRDSVKGRFTISRDDAKNTLYLQMDSLRSEDTATYYCARHGNYIYYGSFFDYWGQGVMVTVSS VL: QFVLSQPNSVSTNLGSTVKLSCKRSTGNIGSNYVSWYQQHEGRSPTTMIYRDDKRPDGVPDRFSGSIDRSSDSALLTINNVQTEDEADYFCQSYSSGINIFGGGTKLTVLG | – | – | no binding (tested: 10 ug/mL) | 1.07 | 1.15 | 1.02 | 1.02
